Measured values reported in the supplement of paper PMC5998384.

Tests used:
HeLa Kyoto [1] = test: solubility in G1/S (NP-40 vs SDS abundance) (log2 ratio); higher = more soluble; conditions: cell cycle stage: G1/S
HeLa Kyoto [2] = test: solubility change mitosis vs G1/S (difference of NP-40 vs SDS log2 ratios) (log2 ratio difference); higher = more soluble in mitosis
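For solubility change mitosis vs G1/S (difference of NP-40 vs SDS log2 ratios) in this document: synchronized HeLa Kyoto cells (double thymidine block for G1/S, nocodazole release for mitosis), protein amounts in NP-40 versus SDS lysates quantified by mass spectrometry, three biological replicates.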
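For solubility in G1/S (NP-40 vs SDS abundance) in this document: HeLa Kyoto cells arrested at G1/S by double thymidine block, proteins quantified by TMT10plex mass spectrometry in mild NP-40 versus SDS extracts, three biological replicates.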

ISG20, sequence (chain, as listed by the source): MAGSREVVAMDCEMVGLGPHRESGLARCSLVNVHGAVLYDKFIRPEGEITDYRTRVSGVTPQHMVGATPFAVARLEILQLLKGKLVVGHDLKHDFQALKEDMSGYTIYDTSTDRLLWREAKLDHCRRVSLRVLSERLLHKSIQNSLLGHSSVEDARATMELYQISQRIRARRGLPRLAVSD

Substance	solubility in G1/S (log2) (HeLa Kyoto [1])	solubility change mitosis (log2) (HeLa Kyoto [2])
MSETDHIASTSSDKNVGKTPELKEDSCNLFSGNESSKLENESKLLSLNTDKTLCQPNEHNNRIEAQENYIPDHGGGEDSCAKTDTGSENSEQIANFPSGNFAKHISKTNETEQKVTQILVELRSSTFPESANEKTYSESPYDTDCTKKFISKIKSVSASEDLLEEIESELLSTEFAEHRVPNGMNKGEHALVLFEKCVQDKYLQQEHIIKKLIKENKKHQELFVDICSEKDNLREELKKRTETEKQHMNTIKQLESRIEELNKEVKASRDQLIAQDVTAKNAVQQLHKEMAQRMEQANKKCEEARQEKEAMVMKYVRGEKESLDLRKEKETLEKKLRDANKELEKNTNKIKQLSQEKGRLHQLYETKEGETTRLIREIDKLKEDINSHVIKVKWAQNKLKAEMDSHKETKDKLKETTTKLTQAKEEADQIRKNCQDMIKTYQESEEIKSNELDAKLRVTKGELEKQMQEKSDQLEMHHAKIKELEDLKRTFKEGMDELRTLRTKVKCLEDERLRTEDELSKYKEIINRQKAEIQNLLDKVKTADQLQEQLQRGKQEIENLKEEVESLNSLINDLQKDIEGSRKRESELLLFTERLTSKNAQLQSESNSLQSQFDKVSCSESQLQSQCEQMKQTNINLESRLLKEEELRKEEVQTLQAELACRQTEVKALSTQVEELKDELVTQRRKHASSIKDLTKQLQQARRKLDQVESGSYDKEVSSMGSRSSSSGSLNARSSAEDRSPENTGSSVAVDNFPQVDKAMLIERIVRLQKAHARKNEKIEFMEDHIKQLVEEIRKKTKIIQSYILREESGTLSSEASDFNKVHLSRRGGIMASLYTSHPADNGLTLELSLEINRKLQAVLEDTLLKNITLKENLQTLGTEIERLIKHQHELEQRTKKT [CCDC186]	0.232	0.000436
MEPIYPFARPQMNTRFPSSRMVPFHFPPSKCALWNPTPTGDFIYLHLSYYRNPKLVVTEKTIRLAYRHAKQNKKNSSCFLLGSLTADEDEEGVTLTVDRFDPGREVPECLEITPTASLPGDFLIPCKVHTQELCSREMIVHSVDDFSSALKALQCHICSKDSLDCGKLLSLRVHITSRESLDSVEFDLHWAAVTLANNFKCTPVKPIPIIPTALARNLSSNLNISQVQGTYKYGYLTMDETRKLLLLLESDPKVYSLPLVGIWLSGITHIYSPQVWACCLRYIFNSSVQERVFSESGNFIIVLYSMTHKEPEFYECFPCDGKIPDFRFQLLTSKETLHLFKNVEPPDKNPIRCELSAESQNAETEFFSKASKNFSIKRSSQKLSSGKMPIHDHDSGVEDEDFSPRPIPSPHPVSQKISKIQPSVPELSLVLDGNFIESNPLPTPLEMVNNENPPLINHLEHLKPLQPQLYDEKHSPEVEAGEPSLRGIPNQLNQDKPALLRHCKVRQPPAYKKGNPHTRNSIKPSSHNGPSHDIFEKLQTVSAGNVQNEEYPIRPSTLNSRQSSLAPQSQPHDFVFSPHNSGRPMELQIPTPPLPSYCSTNVCRCCQHHSHIQYSPLNSWQGANTVGSIQDVQSEALQKHSLFHPSGCPALYCNAFCSSSSPIALRPQGDMGSCSPHSNIEPSPVARPPSHMDLCNPQPCTVCMHTPKTESDNGMMGLSPDAYRFLTEQDRQLRLLQAQIQRLLEAQSLMPCSPKTTAVEDTVQAGRQMELVSVEAQSSPGLHMRKGVSIAVSTGASLFWNAAGEDQEPDSQMKQDDTKISSEDMNFSVDINNEVTSLPGSASSLKAVDIPSFEESNIAVEEEFNQPLSVSNSSLVVRKEPDVPVFFPSGQLAESVSMCLQTGPTGGASNNSETSEEPKIEHVMQPLLHQPSDNQKIYQDLLGQVNHLLNSSSKETEQPSTKAVIISHECTRTQNVYHTKKKTHHSRLVDKDCVLNATLKQLRSLGVKIDSPTKVKKNAHNVDHASVLACISPEAVISGLNCMSFANVGMSGLSPNGVDLSMEANAIALKYLNENQLSQLSVTRSNQNNCDPFSLLHINTDRSTVGLSLISPNNMSFATKKYMKRYGLLQSSDNSEDEEEPPDNADSKSEYLLNQNLRSIPEQLGGQKEPSKNDHEIINCSNCESVGTNADTPVLRNITNEVLQTKAKQQLTEKPAFLVKNLKPSPAVNLRTGKAEFTQHPEKENEGDITIFPESLQPSETLKQMNSMNSVGTFLDVKRLRQLPKLF [STIL]	-0.362	0.239
SYNE1	-0.526	0.198
MKKSYSGGTRTSSGRLRRLGDSSGPALKRSFEVEEVETPNSTPPRRVQTPLLRATVASSTQKFQDLGVKNSEPSARHVDSLSQRSPKASLRRVELSGPKAAEPVSRRTELSIDISSKQVENAGAIGPSRFGLKRAEVLGHKTPEPAPRRTEITIVKPQESAHRRMEPPASKVPEVPTAPATDAAPKRVEIQMPKPAEAPTAPSPAQTLENSEPAPVSQLQSRLEPKPQPPVAEATPRSQEATEAAPSCVGDMADTPRDAGLKQAPASRNEKAPVDFGYVGIDSILEQMRRKAMKQGFEFNIMVVGQSGLGKSTLINTLFKSKISRKSVQPTSEERIPKTIEIKSITHDIEEKGVRMKLTVIDTPGFGDHINNENCWQPIMKFINDQYEKYLQEEVNINRKKRIPDTRVHCCLYFIPATGHSLRPLDIEFMKRLSKVVNIVPVIAKADTLTLEERVHFKQRITADLLSNGIDVYPQKEFDEDSEDRLVNEKFREMIPFAVVGSDHEYQVNGKRILGRKTKWGTIEVENTTHCEFAYLRDLLIRTHMQNIKDITSSIHFEAYRVKRLNEGSSAMANGMEEKEPEAPEM [SEPT9]	0.198	-0.0335
MSAQTSPAEKGLNPGLMCQESYACSGTDEAIFECDECCSLQCLRCEEELHRQERLRNHERIRLKPGHVPYCDLCKGLSGHLPGVRQRAIVRCQTCKINLCLECQKRTHSGGNKRRHPVTVYNVSNLQESLEAEEMDEETKRKKMTEKVVSFLLVDENEEIQVTNEEDFIRKLDCKPDQHLKVVSIFGNTGDGKSHTLNHTFFYGREVFKTSPTQESCTVGVWAAYDPVHKVAVIDTEGLLGATVNLSQRTRLLLKVLAISDLVIYRTHADRLHNDLFKFLGDASEAYLKHFTKELKATTARCGLDVPLSTLGPAVIIFHETVHTQLLGSDHPSEVPEKLIQDRFRKLGRFPEAFSSIHYKGTRTYNPPTDFSGLRRALEQLLENNTTRSPRHPGVIFKALKALSDRFSGEIPDDQMAHSSFFPDEYFTCSSLCLSCGVGCKKSMNHGKEGVPHEAKSRCRYSHQYDNRVYTCKACYERGEEVSVVPKTSASTDSPWMGLAKYAWSGYVIECPNCGVVYRSRQYWFGNQDPVDTVVRTEIVHVWPGTDGFLKDNNNAAQRLLDGMNFMAQSVSELSLGPTKAVTSWLTDQIAPAYWRPNSQILSCNKCATSFKDNDTKHHCRACGEGFCDSCSSKTRPVPERGWGPAPVRVCDNCYEARNVQLAVTEAQVDDEGGTLIARKVGEAVQNTLGAVVTAIDIPLGLVKDAARPAYWVPDHEILHCHNCRKEFSIKLSKHHCRACGQGFCDECSHDRRAVPSRGWDHPVRVCFNCNKKPGDL [ZFYVE1]	-0.282	-0.0704
ISG20	0.28	-0.182
MDGAVMEGPLFLQSQRFGTKRWRKTWAVLYPASPHGVARLEFFDHKGSSSGGGRGSSRRLDCKVIRLAECVSVAPVTVETPPEPGATAFRLDTAQRSHLLAADAPSSAAWVQTLCRNAFPKGSWTLAPTDNPPKLSALEMLENSLYSPTWEGSQFWVTVQRTEAAERCGLHGSYVLRVEAERLTLLTVGAQSQILEPLLSWPYTLLRRYGRDKVMFSFEAGRRCPSGPGTFTFQTAQGNDIFQAVETAIHRQKAQGKAGQGHDVLRADSHEGEVAEGKLPSPPGPQELLDSPPALYAEPLDSLRIAPCPSQDSLYSDPLDSTSAQAGEGVQRKKPLYWDLYEHAQQQLLKAKLTDPKEDPIYDEPEGLAPVPPQGLYDLPREPKDAWWCQARVKEEGYELPYNPATDDYAVPPPRSTKPLLAPKPQGPAFPEPGTATGSGIKSHNSALYSQVQKSGASGSWDCGLSRVGTDKTGVKSEGST [DOK1]	-0.257	0.00435
MTKKKRENLGVALEIDGLEEKLSQCRRDLEAVNSRLHSRELSPEARRSLEKEKNSLMNKASNYEKELKFLRQENRKNMLLSVAIFILLTLVYAYWTM [CCDC167]	0.839	0.231
MALEGMSKRKRKRSVQEGENPDDGVRGSPPEDYRLGQVASSLFRGEHHSRGGTGRLASLFSSLEPQIQPVYVPVPKQTIKKTKRNEEEESTSQIERPLSQEPAKKVKAKKKHTNAEKKLADRESALASADLEEEIHQKQGQKRKNSQPGVKVADRKILDDTEDTVVSQRKKIQINQEEERLKNERTVFVGNLPVTCNKKKLKSFFKEYGQIESVRFRSLIPAEGTLSKKLAAIKRKIHPDQKNINAYVVFKEESAATQALKRNGAQIADGFRIRVDLASETSSRDKRSVFVGNLPYKVEESAIEKHFLDCGSIMAVRIVRDKMTGIGKGFGYVLFENTDSVHLALKLNNSELMGRKLRVMRSVNKEKFKQQNSNPRLKNVSKPKQGLNFTSKTAEGHPKSLFIGEKAVLLKTKKKGQKKSGRPKKQRKQK [RBM34]	-2.26	1.46
MEGAAAREARGTETPRASAPPPAPSEPPAAPRARPRLVFRTQLAHGSPTGKIEGFTNVRELYAKIAEAFGIAPTEILFCTLNSHKVDMQKLLGGQIGLEDFIFAHVRGETKEVEVTKTEDALGLTITDNGAGYAFIKRIKEGSIINRIEAVCVGDSIEAINDHSIVGCRHYEVAKMLRELPKSQPFTLRLVQPKRAFDMIGQRSRSSKCPVEAKVTSGRETLRLRSGGAATVEEAPSEFEEEASRKVDDLLESYMGIRDPELASTMVETSKKTASAQEFARCLDSVLGEFAFPDEFVVEVWAAIGEAREACG [GIPC3]	0.0786	-0.0196
MAASKKAVLGPLVGAVDQGTSSTRFLVFNSRTAELLSHHQVEIKQEFPREGWVEQDPKEILHSVYECIEKTCEKLGQLNIGISNIKAIGVSNQRETTVVWDKITGEPLYNAVVWLDLRTQSTVESLSKRIPGNNNFVKSKTGLPLSTYFSAVKLRWLLDNVRKVQKAVEEKRALFGTIDSWLIWSLTGGVNGGVHCTDVTNASRTMLFNIHSLEWDKQLCEFFGIPMEILPHVRSSSEIYGLMKAGALEGVPISGCLGDQSAALVGQMCFQIGQAKNTYGTGCFLLCNTGHKCVFSDHGLLTTVAYKLGRDKPVYYALEGSVAIAGAVIRWLRDNLGIIKTSEEIEKLAKEVGTSYGCYFVPAFSGLYAPYWEPSARGIICGLTQFTNKCHIAFAALEAVCFQTREILDAMNRDCGIPLSHLQVDGGMTSNKILMQLQADILYIPVVKPLMPETTALGAAMAAGAAEGVDVWSLEPEDLSAVTMERFEPQINAEESEIRYSTWKKAVMKSMGWVTTQSPEGGDPSVFCSLPLGFFIVSSMAMLIGARYISGIP [GK3P]	-0.0732	-0.0298
MDPRGTKRGAEKTEVAEPRNKLPRPAPSLPTDPALYSGPFPFYRRPSELGCFSLDAQRQYHGDARALRYYSPPPTNGPGPNFDLRDGYPDRYQPRDEEVQERLDHLLCWLLEHRGRLEGGPGWLAEAIVTWRGHLTKLLTTPYERQEGWQLAASRFQGTLYLSEVETPNARAQRLARPPLLRELMYMGYKFEQYMCADKPGSSPDPSGEVNTNVAFCSVLRSRLGSHPLLFSGEVDCTDPQAPSTQPPTCYVELKTSKEMHSPGQWRSFYRHKLLKWWAQSFLPGVPNVVAGFRNPDGFVSSLKTFPTMKMFEYVRNDRDGWNPSVCMNFCAAFLSFAQSTVVQDDPRLVHLFSWEPGGPVTVSVHQDAPYAFLPIWYVEAMTQDLPSPPKTPSPK [DXO]	0.0451	-0.2
